Results reported in ChEMBL document CHEMBL1139252, “Inhibition of purple acid phosphatase with alpha-alkoxynaphthylmethylphosphonic acids” (Bioorg Med Chem Lett, 2009).

Columns and labels:
Details in all cases: Phaseolus vulgaris
[1] = substrate: O=P(O)(O)Cc1cccc2ccccc12; assay: (§1) Activity of red kidney bean PAP at pH 6.2
[2] = substrate: CCCCCCCCOC(c1cccc2ccccc12)P(=O)(O)O; assay: as §1
[3] = substrate: CCCCCCCCCCOC(c1cccc2ccccc12)P(=O)(O)O; assay: as §1
[4] = substrate: O=P(O)(O)C(O)c1cccc2ccccc12; assay: as §1
[5] = substrate: CCCCCCOC(c1cccc2ccccc12)P(=O)(O)O; assay: as §1

B1: Fe(3+)-Zn(2+) purple acid phosphatase (Phaseolus vulgaris), P80366 (protein)
chain: MGVVKGLLALALVLNVVVVSNGGKSSNFVRKTNKNRDMPLDSDVFRVPPGYNAPQQVHITQGDLVGRAMIISWVTMDEPGSSAVRYWSEKNGRKRIAKGKMSTYRFFNYSSGFIHHTTIRKLKYNTKYYYEVGLRNTTRRFSFITPPQTGLDVPYTFGLIGDLGQSFDSNTTLSHYELSPKKGQTVLFVGDLSYADRYPNHDNVRWDTWGRFTERSVAYQPWIWTAGNHEIEFAPEINETEPFKPFSYRYHVPYEASQSTSPFWYSIKRASAHIIVLSSYSAYGRGTPQYTWLKKELRKVKRSETPWLIVLMHSPLYNSYNHHFMEGEAMRTKFEAWFVKYKVDVVFAGHVHAYERSERVSNIAYKITNGLCTPVKDQSAPVYITIGDAGNYGVIDSNMIQPQPEYSAFREASFGHGMFDIKNRTHAHFSWNRNQDGVAVEADSVWFFNRHWYPVDDST
For B1, the Km [1] was 5.78 mM, the Km [2] was 3.41 mM and the Km [3] was 3.1 mM. The Km [4] was 5.31 mM and the Km [5] was 4.28 mM.
